{"source": "patent US10745461B2", "about": "“Pulsed introduction of low-dose RANKL as a therapy for diet-induced atherosclerosis” (Saint Louis University, priority 2015, dated 2020)", "molecules": {"B1": {"name": "receptor activator of NF-κB ligand (protein, UniProt O35235 139-316, looked up)", "Tumor necrosis factor ligand …": "FSGAPAMMEGSWLDVAQRGKPEAQPFAHLTINAASIPSGSHKVTLSSWYHDRGWAKISNMTLSNGKLRVNQDGFYYLYANICFRHHETSGSVPTDYLQLMVYVVKTSIKIPSSHNLMKGGSTKNWSGNSEFHFYSINVGGFFKLRAGEEISIQVSNPSLLDPDQDATYFGAFKVQDID", "modifications": "GST tag"}}, "key": {"ovariectomized mice": {"test_system": "ovariectomized mice", "assay": "Low dose RANKL in ovariectomized mice (TcREG, serum CTX, μCT, bone formation)", "assay_type": "in vivo", "description": "Representative FACS contour plots are shown on the first and second panel and the distribution (N=8 mice per group) is shown in the third panel. […] In these experiments (panels C-F), we used ex vivo generated TcREG as a positive control/comparator. […] Arrows are shown to emphasize the distance between dyes.\nit was then determined that RANKL induces functional TcREG in ovariectomized mice. Having shown that RANKL could restore the ability of osteoclasts to induce FoxP3 expression in the presence of TNFα in vitro, we tested the ability of RANKL to induce TcREG in ovariectomized mice, as proof of principle for de-repression by increased levels of RANKL in pro-inflammatory environment. Again, a dose of RANKL that induced the highest levels of TcREG in vivo (FIG. 1A) was used. Administration of love dose RANKL to ovariectomized mice increased TcREG numbers by an average of 1.8-fold (FIG. 6A). To determine whether this increase in TcREG numbers affected bone resorption in ovariectomized mice, levels of bone resorption and bone formation rates in these (low-dose) RANKL-treated mice were measured. As it has been previously established that ex vivo generated OC-iTcREG limit bone resorption, increased bone mass, decreased activated effector T-cells, and increases bone formation and mineral apposition rates, this treatment was used as a benchmark in these experiments.\nBilateral ovariectomy was performed on 12-14 week old mice. Mice were anesthetized using 2.5% isoflurane to initiate anesthesia, and 1% for maintenance. The ovaries were accessed through a single incision in the skin, and exteriorized through muscle wall on each side. Each ovary was clamped using hemostat and removed by a single cut. Skin staples (3M) were used to close the skin incision. To minimize discomfort post-surgery, 0.025 mg/kg Buprenorphine was administered subcutaneously. Zoledronate (Selleck Chemicals) was administered at 30 μg/kg via tail vein.\nFood was withdrawn 6 to 10 hours prior to bleeding. Peripheral blood (100 to 200 μL) obtained via sub-mandibular vein, was allowed to clot for 2 hours at room temperature and serum collected by spinning down the cell pellet. Serum C-terminal telopeptide of type 1 collagen (serum CTX) was measured using ELISA according to the manufacturer's instructions (Immunodiagnostic Systems, Plc)\nThe bones were scanned in μCT40 (Scanco Medical) at 55 kVp, 145 μA, and resolution of 16 μm. Gauss sigma of 1.2, Gauss support of 2, lower threshold of 237, and upper threshold of 1000 were used for all the analysis. Regions of interest were selected 50 slices below the growth plate of the proximal tibia to evaluate the trabecular compartment. Bone mineral density was obtained by quantitative μCT using Scanco Phantoms for calibration^49. All μCT data and bone histomorphometry data was collected and analyzed by C.Y, who was blinded to the treatment performed on the mouse samples."}, "TNFα and IL17A": {"test_system": "TNFα and IL17A", "assay": "Once per month low-dose RANKL or Zoledronate: cytokines from peripheral blood cells by multiplexed ELISA", "assay_type": "in vivo, mice", "details": "120 days post-OVX; RANKL 0.125 mg/kg once per month; ZA once 3 weeks post-OVX", "description": "To assess the kinetics of a single treatment, C57BL/6J ovariectomized mice were treated with low-dose RANKL (administered twice 24 hrs apart, 2 weeks post-OVX) and then followed by serum CTX assay. […] In FIG. 11B, to assess whether multiple treatments are effective, sham-operated (Sx) or OVX 12-week old C57BL/6J mice were treated with low-dose RANKL (0.125 mg/kg) once per month or once with the bisphosphonate Zoledronate (ZA; 3 weeks post-OVX). 120 days post-OVX peripheral blood obtained by mandible bleeds was treated to remove RBCs (BD Pharmalyse) then 1 to 3×10^6 cells were plated per well in triplicate (6 mice/group). Media was collected after 36 hours of culturing and cytokine levels quantitated by multiplexed ELISA (Millipore)."}, "IL-17A and TNFα": {"test_system": "IL-17A and TNFα", "assay": "WD-fed ovariectomized WT mice: TcREG and IL-17A/TNFα production by peripheral blood T-cells", "assay_type": "in vivo", "details": "for peripheral blood T-cells that express TNFα and/or IL-17A (flow cytometry) / IL-17A and TNFα produced by freshly isolated peripheral blood cells (ELISA): WD-fed OVX WT mice", "excerpt": "(§1) It has been previously shown that low-dose RANKL (IdRANKL) induces TcREG in bone marrow. We postulated that induction of TcREG might be atheroprotective as it protects against osteoporosis in ovariectomized mice. To test that proposal, we first tested the ability of IdRANKL to modulate the systemic availability of proinflammatory cytokines. Thus, a new group of WT mice were fed WD, and subjected to sham or OVX surgeries, then dosed with saline or IdRANKL (two i.p. injections 3 and 7 weeks after OVX). […] We then, measured the ability of freshly isolated T-cells from peripheral blood to produce IL-17A and TNFα. […] Zoledronate is a bisphosphonate that is used clinically to prevent bone resorption (by suppressing osteoclasts). […] Without being limited to any particular theory of operation, we hypothesize that these cells contribute to postmenopausal comorbidities such as atherosclerosis and osteoporosis, and that immunosuppressing therapies such as pulsed IdRANKL will have cardio- and osteo-protective effects."}, "[1]": {"test_system": "atherosclerotic lesions in the aortic root", "assay": "WD-fed ovariectomized LDLR-/- and WT mice dosed with saline or IdRANKL: weight, cholesterol, atheroma, BV/TV", "assay_type": "in vivo", "details": "for atheroprotection / effects of OVX on atherogenesis / bone loss (BV/TV): LDLR-/- and WT mice; for reduction of plaque size compared to non-treated animals: WD, OVX; for body weight gain: ovariectomized WD-fed LDLR-/- and WT mice", "description": "Ovariectomized (OVX) mice were treated with saline control or pulsed low-dose RANKL at 3 and 7 weeks post-OVX. RANKL was administered at 0.125 mg/kg twice at 0 and 24 hours for each treatment time point.\nIn order to define the contributions of menopause, LDL-cholesterol, and diet to postmenopausal morbidities, 10-week-old wild-type (WT) and (LDLR−/−) mice were placed on normal (ND) or western (WD) diet and we performed sham-surgery or ovariectomy two weeks after die diet switch. This regimen is intended to mimic the conditions of patients, who presumably already have fatty streaks in their vasculature by the time menopause ensues. All animals were sacrificed at 19 weeks of age, when hearts, long bones, and blood were collected.\nas §1\nTo test this hypothesis, a new group of LDLR−/− and WT mice were fed WD and ovariectomized as discussed previously, and dosed with saline or IdRANKL as above. […] The underlying mechanism for this limiting weight-gain following induction of TcREG is not known, but warrants further study. […] This beneficial effect was more pronounced in WI mice, where plaques were reduced by 80% in size, compared to non-treated animals. In LDLR−/− mice, the reduction was more modest at 35%. […] We conclude that IdRANKL likely exerts protective effects in the aorta and the bone via TcReG-mediated suppression of TEFF proinflammatory activity (e.g. production of IL-17A and TNFα)."}}, "note": "“Also recorded” adds a separate entry of the source."}
{"molecule": "B1", "values": [{"measurement": "osteoclasts occupying bone", "setting": "ovariectomized mice", "result": "fewer osteoclasts occupying bone"}, {"measurement": "overall effectiveness of treatment", "setting": "ovariectomized mice", "result": "more effective treatment than OC-iTcREG and the bisphosphonate Zoledronic acid by all measurable criteria"}, {"measurement": "bone mass and bone mineral density (μCT)", "setting": "ovariectomized mice; comparator OC-iTcREG", "result": "more bone mass and bone mineral density relative to the OC-iTcREG treated mice"}, {"measurement": "serum CTX", "setting": "ovariectomized mice; comparator OC-iTcREG, listed as low dose RANKL", "result": "lower levels of serum CTX compared to mice treated with OC-iTcREG"}, {"measurement": "serum CTX", "setting": "ovariectomized mice; comparator OC-iTcREG, listed as low-dose RANKL", "result": "serum CTX levels decreased"}, {"measurement": "bone formation and mineral apposition rates", "setting": "ovariectomized mice; comparators OC-iTcREG, Zoledronate, listed as low dose RANKL", "result": "to a greater extent than Zoledronate and ex vivo generated TcREG; also recorded: increase bone formation and mineral apposition rates than OC-iTcREG treated mice"}, {"measurement": "TcREG induction in bone marrow", "setting": "ovariectomized mice; intraperitoneal 0.125 mg/kg", "result": "induced TcREG in the bone marrow of ovariectomized mice"}, {"measurement": "increase in TcREG numbers (average)", "setting": "ovariectomized mice; low dose RANKL", "result": 1.8, "unit": "fold"}, {"measurement": "TNFα and IL17A produced by peripheral blood cells (immunosuppression)", "setting": "TNFα and IL17A", "result": "immunosuppressive"}, {"measurement": "peripheral blood T-cells that express TNFα and/or IL-17A (flow cytometry)", "setting": "IL-17A and TNFα", "result": "abrogates OVX-induced increase in peripheral blood T-cells that express TNFα and/or IL-17A"}, {"measurement": "IL-17A and TNFα produced by freshly isolated peripheral blood cells (ELISA)", "setting": "IL-17A and TNFα; listed as IdRANKL", "result": "abrogated the ability of circulating T-cells to secrete IL-17A, TNFα, or both"}, {"measurement": "peripheral blood T-cells that express TNFα and/or IL-17A (flow cytometry)", "setting": "IL-17A and TNFα; listed as IdRANKL", "result": "prevented such increase"}, {"measurement": "IL-17A and TNFα produced by freshly isolated peripheral blood cells (ELISA)", "setting": "IL-17A and TNFα; listed as low-dose RANKL", "result": "abrogates OVX-induced increase in TNFα and IL-17A expression"}, {"measurement": "numbers of CD8+ FoxP3+ cells in the bone marrow", "setting": "IL-17A and TNFα; WD-fed WT mice, two i.p. injections 3 and 7 weeks after OVX", "result": "increased"}, {"measurement": "atheroprotection / effects of OVX on atherogenesis", "setting": "[1]", "result": "eliminated the effects of OVX on both osteoporosis and atherogenesis"}, {"measurement": "total cholesterol in serum", "setting": "[1]; LDLR-/- and WT mice (FIG. 20G)", "result": "does not significantly alter total cholesterol in serum"}, {"measurement": "atheroprotection / effects of OVX on atherogenesis", "setting": "[1]; listed as IdRANKL", "result": "atheroprotective"}, {"measurement": "bone loss (BV/TV)", "setting": "[1]; listed as IdRANKL", "result": "pronounced effect on preventing osteoporosis"}, {"measurement": "bone loss (BV/TV)", "setting": "[1]; listed as low-dose RANKL", "result": "prevents bone loss"}, {"measurement": "serum cholesterol", "setting": "[1]; LDLR-/- mice", "result": "slightly decreased"}, {"measurement": "reduction of plaque size compared to non-treated animals", "setting": "[1]; LDLR-/- mice", "result": 35, "unit": "%"}, {"measurement": "reduction of plaque size compared to non-treated animals", "setting": "[1]; WT mice", "result": 80, "unit": "%"}, {"measurement": "body weight gain", "setting": "[1]; listed as IdRANKL", "result": "ameliorated body weight gain"}, {"measurement": "body weight gain", "setting": "[1]; listed as low-dose RANKL", "result": "reduces body gain weight"}]}
